In patent US20030199040A1:

Tests used:
[1] = target: mIL-18 (purchased from PeproTech) (murine (printed as mIL-18)) (UniProt P70380); assay: cell-based or functional assay
[2] = target: mAcPL and mIL-1Rrp1 cotransfected on cells (COS7 or S49.1) (murine) (UniProt Q61098); assay: cell-based or functional assay
mAcPL and mIL-1Rrp1 cotransfected on cells (COS7 or S49.1) (murine), sequence (Q61098 19-537, chain 1 of 2): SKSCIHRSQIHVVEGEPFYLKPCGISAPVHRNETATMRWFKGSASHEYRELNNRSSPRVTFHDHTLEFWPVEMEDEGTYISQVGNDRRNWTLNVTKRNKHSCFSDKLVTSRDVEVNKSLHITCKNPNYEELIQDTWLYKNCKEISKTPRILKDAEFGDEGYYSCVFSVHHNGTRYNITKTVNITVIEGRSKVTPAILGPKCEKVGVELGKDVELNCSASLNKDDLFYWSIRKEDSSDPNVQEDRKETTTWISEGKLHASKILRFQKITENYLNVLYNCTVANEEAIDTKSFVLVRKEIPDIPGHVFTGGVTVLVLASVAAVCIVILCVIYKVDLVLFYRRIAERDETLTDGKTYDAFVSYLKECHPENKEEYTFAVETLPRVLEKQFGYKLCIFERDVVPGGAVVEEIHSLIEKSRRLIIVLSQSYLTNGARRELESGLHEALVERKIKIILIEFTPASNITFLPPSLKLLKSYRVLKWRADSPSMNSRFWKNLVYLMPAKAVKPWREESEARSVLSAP
mAcPL and mIL-1Rrp1 cotransfected on cells (COS7 or S49.1) (murine), sequence (chain, as listed by the source, chain 2 of 2): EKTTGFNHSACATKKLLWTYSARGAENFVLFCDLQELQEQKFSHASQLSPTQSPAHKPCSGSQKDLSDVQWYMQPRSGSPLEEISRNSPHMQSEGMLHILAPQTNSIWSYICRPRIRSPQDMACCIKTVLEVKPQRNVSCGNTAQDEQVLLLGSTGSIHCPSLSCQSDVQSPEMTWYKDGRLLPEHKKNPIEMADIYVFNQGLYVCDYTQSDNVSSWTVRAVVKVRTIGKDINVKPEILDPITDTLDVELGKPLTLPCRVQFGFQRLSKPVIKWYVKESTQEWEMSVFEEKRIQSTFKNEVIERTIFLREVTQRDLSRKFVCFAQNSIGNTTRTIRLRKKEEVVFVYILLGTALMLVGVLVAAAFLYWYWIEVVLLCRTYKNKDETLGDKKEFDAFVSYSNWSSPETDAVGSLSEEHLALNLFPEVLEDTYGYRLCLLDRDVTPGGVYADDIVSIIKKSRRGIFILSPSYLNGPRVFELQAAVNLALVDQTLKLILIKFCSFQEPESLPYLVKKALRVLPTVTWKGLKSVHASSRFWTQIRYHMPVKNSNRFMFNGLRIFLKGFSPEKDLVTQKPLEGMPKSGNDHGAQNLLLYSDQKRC

mIL-18 (purchased from PeproTech) (murine (printed as mIL-18)), sequence (P70380 36-192 limits assumed): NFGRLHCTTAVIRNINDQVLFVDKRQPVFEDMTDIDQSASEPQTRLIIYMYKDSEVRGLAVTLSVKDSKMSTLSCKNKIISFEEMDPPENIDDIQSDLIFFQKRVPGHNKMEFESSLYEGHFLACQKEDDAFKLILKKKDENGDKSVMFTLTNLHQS

Substance | inhibition of mIL-18 induced NFκB-luciferase activity in Cos7 cells transfected with mIL-1Rrp1 and mAcPL (10 ng/ml mIL-18 preincubated with the protein) [1] | luciferase activity (RLU) at 20 ug/ml and 50 ug/ml of the protein mixture; uninduced cells 3×10e3 RLU, mIL-18 without receptor-Fc 25×10e3 RLU [1] | increase in NFκB DNA binding activity (NFκB-Luc luciferase reporter), COS cells, 40 ng/mL IL-18 for 4 hours [2] | increase in NFκB DNA binding activity (NFκB-Luc luciferase reporter), S49.1 cells, 40 ng/mL IL-18 for 4 hours [2]
heterogeneous mIL-1Rrp1-Fc+mAcPL-Fc protein mixture (homodimers of mIL-1Rrp1-Fc, homodimers of mAcPL-Fc, and heterodimeric mIL-1Rrp1-Fc/mAcPL-Fc molecules) (from UniProt Q61098 20-322; Q9Z2B1 20-356) (Fc fusion) | 87% | 6000 RLU | – | –
mIL-18 (purchased from PeproTech) (from UniProt P70380 36-192) (ligand) | – | – | 10 fold | 300 fold
